This assay concerns the target GPI-anchored urokinase receptor (uPAR) on U937 cells (human (endogenous in U937)) (UniProt Q03405). The assay can be described thus: radioligand binding.

This note sets out measurements from publication PMC2139889.

Sequence of UniProt Q03405 (Q03405 23-305): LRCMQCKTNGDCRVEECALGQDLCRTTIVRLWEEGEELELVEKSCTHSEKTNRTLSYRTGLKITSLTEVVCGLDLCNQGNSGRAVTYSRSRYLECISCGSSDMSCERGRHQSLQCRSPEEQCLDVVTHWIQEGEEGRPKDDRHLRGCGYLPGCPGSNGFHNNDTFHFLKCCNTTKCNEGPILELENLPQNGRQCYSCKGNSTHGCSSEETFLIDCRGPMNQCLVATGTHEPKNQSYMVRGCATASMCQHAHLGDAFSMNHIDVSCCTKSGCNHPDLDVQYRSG

Usually IC50 stands for the concentration that inhibits the measured activity by half. High values mean lower potency, low ones higher potency. Regarding human urinary uPA (enzyme), the IC50 amounted to 0.4 nM.

Turning to “histidine-tagged wild-type pro-uPA (enzyme)”, the IC50 was determined as 0.4 nM.

“histidine-tagged pro-uPA with Ser138 replaced by Glu (enzyme)” yielded an IC50 of 0.4 nM.

The substance “histidine-tagged pro-uPA with Ser138 and Ser303 replaced by Glu (enzyme)” gave a concentration for half-maximal inhibition (IC50) of 0.4 nM.
